According to publication doi:10.1101/2021.12.21.473721 (bioRxiv, 2021):

Target: the molecule itself
Experiment: SEC

B1: bacteriophage MS2 coat protein, wildtype (MS2[WT]) (natural protein)
chain: ASNFTQFVLVDNGGTGDVTVAPSNFANGVAEWISSNSRSQAYKVTCSVRQSSAQNRKYTIKVEVPKVATQTVGGVELPVAAWRSYLNMELTIPIFATNSDCELIVKAMQGLLKDGNPIPSAIAANSGIY
  binding result: binds
